Test results published in patent US20210403506A1 (XDCEXPLORER SHANGHAI, published 2021).
Square brackets hold non-standard residues; d marks the D form. Primed or numbered codes have the meaning given here. Ends that are not written are not given here. * marks the point of attachment. Pro(trans-4-Ph) = O=C(O)[C@@H]1C[C@@H](c2ccccc2)CN1; DiMe = N,N-dimethyl (N-terminal dimethylation); Bpa = N[C@@H](Cc1ccc(C(=O)c2ccccc2)cc1)C(=O)O; dTyr(3-F) = N[C@H](Cc1ccc(O)c(F)c1)C(=O)O; PEG8 = NCCOCCOCCOCCOCCOCCOCCOCCOCCC(=O)O; Phe(4-Cl) = N[C@@H](Cc1ccc(Cl)cc1)C(=O)O; Pro(diF)″ = difluoroproline (DiFluorPro); Phe(4-Me) = Cc1ccc(C[C@H](N)C(=O)O)cc1; 1Nal = N[C@@H](Cc1cccc2ccccc12)C(=O)O; 2Nal = N[C@@H](Cc1ccc2ccccc2c1)C(=O)O; dNMeY = CN[C@H](Cc1ccc(O)cc1)C(=O)O; Hydrocinnamoyl = O=C(CCc1ccccc1)*; Palmitoyl = CCCCCCCCCCCCCCCC(=O)*; Hyp = O=C(O)[C@@H]1C[C@@H](O)CN1; NMeF = CN[C@@H](Cc1ccccc1)C(=O)O; 3‑phenylpropyl = c1ccc(CCC*)cc1; Tic = O=C(O)[C@@H]1Cc2ccccc2CN1; NMeL = CN[C@@H](CC(C)C)C(=O)O; NMeS = CN[C@@H](CO)C(=O)O; Thz = O=C(O)[C@@H]1CSCN1; Hexanoyl = CCCCCC(=O)*; βAla = NCCC(=O)O

B1: YW-105 (peptide)
peptide: [dY][NMeF][NMeL]P[dS]QF[dA][Tic]S-OH
modifications: N-terminus assumed
SMILES: CC(C)C[C@@H](C(=O)N1CCC[C@H]1C(=O)N[C@H](CO)C(=O)N[C@@H](CCC(N)=O)C(=O)N[C@@H](Cc1ccccc1)C(=O)N[C@H](C)C(=O)N1Cc2ccccc2C[C@H]1C(=O)N[C@@H](CO)C(=O)O)N(C)C(=O)[C@H](Cc1ccccc1)N(C)C(=O)[C@H](N)Cc1ccc(O)cc1
B2: YW-190 (peptide)
peptide: [dY]F[NMeL]P[dS]QF[dA]XS-NH2
modifications: not fully specified (residue 9); printed as (D-Tyr)-Phe-(NMe-Leu)-Pro-(D-Ser)-Gln-Phe-(D-Ala)-Tic-Ser-NH2
B3: YW-111 (peptide)
peptide: Hydrocinnamoyl-[dY]F[NMeL]P[dS]QF[dA][Tic]S-OH
SMILES: CC(C)C[C@@H](C(=O)N1CCC[C@H]1C(=O)N[C@H](CO)C(=O)N[C@@H](CCC(N)=O)C(=O)N[C@@H](Cc1ccccc1)C(=O)N[C@H](C)C(=O)N1Cc2ccccc2C[C@H]1C(=O)N[C@@H](CO)C(=O)O)N(C)C(=O)[C@H](Cc1ccccc1)NC(=O)[C@@H](Cc1ccc(O)cc1)NC(=O)CCc1ccccc1
B4: YW-121 (peptide)
peptide: [dY]F[NMeL][Thz][dS]QF[dA][Tic]S-OH
modifications: N-terminus assumed
SMILES: CC(C)C[C@@H](C(=O)N1CSC[C@H]1C(=O)N[C@H](CO)C(=O)N[C@@H](CCC(N)=O)C(=O)N[C@@H](Cc1ccccc1)C(=O)N[C@H](C)C(=O)N1Cc2ccccc2C[C@H]1C(=O)N[C@@H](CO)C(=O)O)N(C)C(=O)[C@H](Cc1ccccc1)NC(=O)[C@H](N)Cc1ccc(O)cc1
B5: YW-220 (peptide)
peptide: [dNMeY]F[NMeL]P[dS]Q[2Nal][dA][Tic][NMeS]
modifications: not fully specified (residue 4); printed as (NMe-D-Tyr)-Phe-(NMe-Leu)-Pro(tran-4F)-(D-Ser)-Gln-(Nal-2)-(D-Ala)-Tic-(NMe-Ser)
B6: YW-221 (peptide)
peptide: [dTyr(3-F)]F[NMeL]P[dS]Q[2Nal][dA][Tic][NMeS]
modifications: not fully specified (residue 4); printed as (D-Tyr(3F))-Phe-(NMe-Leu)-Pro(tran-4F)-(D-Ser)-Gln-(Nal-2)-(D-Ala)-Tic-(NMe-Ser)
B7: YW-222 (peptide)
peptide: [dTyr(3-F)]F[NMeL]P[dS]Q[2Nal][dA][Tic]S
modifications: not fully specified (residue 4); printed as [D-Tyr(3F)]-Phe-(NMe-Leu)-Pro(tran-4F)-(D-Ser)-Gln-(Nal-2)-(D-Ala)-Tic-Ser
B8: YW-97 (peptide)
peptide: [dF]FLP[dS]QF[dA][Tic]S-OH
modifications: N-terminus assumed
SMILES: CC(C)C[C@H](NC(=O)[C@H](Cc1ccccc1)NC(=O)[C@H](N)Cc1ccccc1)C(=O)N1CCC[C@H]1C(=O)N[C@H](CO)C(=O)N[C@@H](CCC(N)=O)C(=O)N[C@@H](Cc1ccccc1)C(=O)N[C@H](C)C(=O)N1Cc2ccccc2C[C@H]1C(=O)N[C@@H](CO)C(=O)O
B9: YW-103 (peptide)
peptide: [dNMeY]FLP[dS]QF[dA][Tic]S-OH
modifications: N-terminus assumed
SMILES: CN[C@H](Cc1ccc(O)cc1)C(=O)N[C@@H](Cc1ccccc1)C(=O)N[C@@H](CC(C)C)C(=O)N1CCC[C@H]1C(=O)N[C@H](CO)C(=O)N[C@@H](CCC(N)=O)C(=O)N[C@@H](Cc1ccccc1)C(=O)N[C@H](C)C(=O)N1Cc2ccccc2C[C@H]1C(=O)N[C@@H](CO)C(=O)O
B10: YW-104 (peptide)
peptide: [dY][NMeF]LP[dS]QF[dA][Tic]S-OH
modifications: N-terminus assumed
SMILES: CC(C)C[C@H](NC(=O)[C@H](Cc1ccccc1)N(C)C(=O)[C@H](N)Cc1ccc(O)cc1)C(=O)N1CCC[C@H]1C(=O)N[C@H](CO)C(=O)N[C@@H](CCC(N)=O)C(=O)N[C@@H](Cc1ccccc1)C(=O)N[C@H](C)C(=O)N1Cc2ccccc2C[C@H]1C(=O)N[C@@H](CO)C(=O)O

What follows are binders tested against T1, human Chemokine like receptor 1 (human, UniProt Q99788 1-373) (assay: cell-based or functional assay).
T1 sequence (looked up): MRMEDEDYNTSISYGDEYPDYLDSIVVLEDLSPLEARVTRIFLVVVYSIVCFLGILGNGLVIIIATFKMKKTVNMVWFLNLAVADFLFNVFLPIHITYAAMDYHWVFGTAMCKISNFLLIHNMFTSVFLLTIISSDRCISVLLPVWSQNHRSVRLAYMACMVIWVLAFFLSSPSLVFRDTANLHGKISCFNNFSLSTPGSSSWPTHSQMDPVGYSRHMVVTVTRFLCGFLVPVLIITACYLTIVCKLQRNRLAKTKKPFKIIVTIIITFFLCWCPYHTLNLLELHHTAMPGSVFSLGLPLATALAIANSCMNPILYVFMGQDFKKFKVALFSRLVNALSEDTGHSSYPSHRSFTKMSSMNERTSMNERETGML

Binder | EC50 (µM), activation of Tango CMKLR1-bla U2OS cells [µM]
Hydrocinnamoyl-[dY]F[NPrL]P[dS]QF[dA][Tic]S [YW-186] | 0.011
B1 | 0.0106
B2 | 0.0027
DiMe-[dY]F[NMeL]P[dS]QF[dA][Tic]S [YW-192] | 0.0026
Hexanoyl-[dY]F[NMeL]P[dS]QF[dA][Tic]S [YW-193] | 0.0014
{2‑cyclohexylacetyl}-[dY]F[NMeL]P[dS]QF[dA][Tic]S [YW-194] | 0.0012
{4‑(trifluoromethyl)benzoyl}-[dY]F[NMeL]P[dS]QF[dA][Tic]S-OH [YW-195] | 0.0008
[dY]F[NMeL][Hyp][dS]QF[dA][Tic]S [YW-198] | 0.0053
[dY][1Nal][NMeL]P[dS]QF[dA][Tic]S [YW-199] | 0.0029
[dY][2Nal][NMeL]P[dS]QF[dA][Tic]S [YW-200] | 0.019
[dY][Bpa][NMeL]P[dS]QF[dA][Tic]S [YW-201] | 0.076
[dY][Phe(4-Me)][NMeL]P[dS]QF[dA][Tic]S [YW-202] | 0.0064
B3 | 0.002
[dY][Phe(4-Cl)][NMeL]P[dS]QF[dA][Tic]S [YW-203] | 0.0082
[dY]F[NMeL]P[dT]QF[dA][Tic]S [YW-204] | 0.062
[dY]F[NMeL]P[dS]QF[dA][Phe(4-Me)]S [YW-205] | 0.0062
[dY]F[NMeL]P[dS]QF[dA][Phe(4-Cl)]S [YW-206] | 0.009

Binder | EC50 (µM), activation of Tango CMKLR1-bla U2OS cells [µM]
{3‑phenylpropyl}-[dY]F[NMeL]P[dS]QF[dA][Tic]S-OH [YW-207] | 0.00092
[dY]F[NMeL][Pro(trans-4-Ph)][dS]QF[dA][Tic]S [YW-215] | 0.0048
[dNMeY]F[NMeL][Pro(4Ph)][dS]Q[2Nal][dA][Tic]S [YW-216] | 0.0013
{Palmitoyl-PEG8}-[βAla][βAla][dNMeY]F[NMeL][Pro(trans-4-Ph)][dS]Q[2Nal][dA][Tic]S [YW-217] | 0.0033
B4 | 0.0007
B5 | 0.00067
B6 | 0.00068
B7 | 0.00034
GG[dY]F[NMeL]P[dS]Q[2Nal][dA][Tic]S (not fully specified (residue 6, N-terminus)) [YW-223] | 0.00033
[dY]F[NMeL][Pro(diF)][dS]Q[2Nal][dA][Tic][NMeS] [YW-224] | 0.0013
[dNMeY]F[NMeL][Pro(diF)″][dS]Q[2Nal][dA][Tic][NMeS]-OH [YW-225] | 0.00064
[dTyr(3-F)]F[NMeL][Pro(diF)″][dS]Q[2Nal][dA][Tic][NMeS]-OH [YW-226] | 0.0033
[dY]FL[S‑Pip][dS]QF[dA][Tic]S [YW-96] | 0.039
B8 | 0.05
B9 | 0.0094
[dY]F[NMeL][Thz][dS]Q[2Nal][dA][Tic]S-OH [YW-122] | 0.0006
B10 | 0.08
